The text below walks through data of paper PMC8551270 (Scientific Reports, 2021).

Entries after “also recorded” stand apart in the source; their conditions may differ.

For orientation: Kd means the equilibrium constant for the complex coming apart. Low values mean tighter binding, high ones weaker binding.

Series [1] is described as follows: plasma samples from minipigs dosed i.v., pooled from two minipigs for each time point. Particulars: Göttingen Minipigs, up to 288 h post dosing.
For series [2] the following is noted: cited from earlier work.
The target in series [3] is PYY3-36 analogue 58: [Lys4(TAMRA), Lys30(C14 diacid-gammaGlu-2xAdo)]PYY3-36 L30K (acylated) (UniProt P10082). Description: fluorescence polarization (TAMRA-labelled peptide; excitation 535/25 nm, emission 595/35 nm; Tecan Spark, 384-well plate). The note with it: room temperature, 140 mM NaCl at pH 7.4, 150 mM NaCl at pH 6.0, 10 mM sodium phosphate at pH 7.4, 20 mM MES at pH 6.0.

The target of series [4] is PYY3-36 analogue 59: [Lys4(TAMRA), Lys30(C16 diacid-gammaGlu-2xAdo)]PYY3-36 L30K (acylated) (UniProt P10082). The series is described as above. The note with it: room temperature, 140 mM NaCl at pH 7.4, 150 mM NaCl at pH 6.0, 10 mM sodium phosphate at pH 7.4, 20 mM MES at pH 6.0.
The target of series [5] is PYY3-36 analogue 56: [Lys4(TAMRA), Lys30(C18 diacid-gammaGlu-2xAdo)]PYY3-36 L30K (acylated) (UniProt P10082). The description is as above. Particulars: room temperature, 140 mM NaCl at pH 7.4, 150 mM NaCl at pH 6.0, 10 mM sodium phosphate at pH 7.4, 20 mM MES at pH 6.0.
Series [6] deals with PYY3-36 analogue 60: [Lys4(TAMRA), Lys30(C20 diacid-gammaGlu-2xAdo)]PYY3-36 L30K (acylated) (UniProt P10082). The description is as above. The note with it: room temperature, 140 mM NaCl at pH 7.4, 150 mM NaCl at pH 6.0, 10 mM sodium phosphate at pH 7.4, 20 mM MES at pH 6.0.
Sequence of PYY3-36 analogue 60: [Lys4(TAMRA), Lys30(C20 diacid-gammaGlu-2xAdo)]PYY3-36 L30K (acylated) (P10082 whole entry, stated change not applied): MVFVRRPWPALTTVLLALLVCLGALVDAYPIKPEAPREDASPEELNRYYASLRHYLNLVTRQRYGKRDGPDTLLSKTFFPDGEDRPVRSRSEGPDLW

Sequence of PYY3-36 analogue 56: [Lys4(TAMRA), Lys30(C18 diacid-gammaGlu-2xAdo)]PYY3-36 L30K (acylated) (P10082 whole entry, stated change not applied): as above
Sequence of PYY3-36 analogue 59: [Lys4(TAMRA), Lys30(C16 diacid-gammaGlu-2xAdo)]PYY3-36 L30K (acylated) (P10082 whole entry, stated change not applied): as above
Sequence of PYY3-36 analogue 58: [Lys4(TAMRA), Lys30(C14 diacid-gammaGlu-2xAdo)]PYY3-36 L30K (acylated) (P10082 whole entry, stated change not applied): as above

For the substance [C20diacid-Trx-γGlu-2xAdo]PYY3-36, in series [1], the fragment found result is “[C20diacid-Trx-LgGly-2xAdo]PYY3-34, major”.

On to [(C18diacid-γGlu-2xAdo)]PYY3-36, for which the fragment found result in series [1] is given as “PYY3-34; also recorded: PYY3-35”.

Regarding semaglutide, the “half-life in the minipig model” value in series [2] was “approximately 46 hours”.

Consider [K^ε30(C18diacid-γGlu-2xAdo)]PYY3-36, for which the fragment found entry in series [1] was “PYY4-36, minor; also recorded: PYY6-36, minor”.

Turning to “porcine serum albumin (PSA), charcoal-defatted”, the equilibrium dissociation constant (Kd) in series [3] (pH 6.0) amounted to 34000 nM; in series [3] (pH 7.4), 48000 nM; in series [4] (pH 6.0) it was 5300 nM; in series [4] (pH 7.4), 4500 nM; in series [5] (pH 6.0), 890 nM; in series [5] (pH 7.4), 600 nM. In addition, the Kd in series [6] (pH 6.0) was 460 nM; in series [6] (pH 7.4), 270 nM.

Take “human serum albumin (HSA), fatty-acid free”: the Kd worked out at 23000 nM in series [3] (pH 6.0); 44000 nM in series [3] (pH 7.4); 4700 nM in series [4] (pH 6.0); 4200 nM in series [4] (pH 7.4); 930 nM in series [5] (pH 6.0); 580 nM in series [5] (pH 7.4). Moreover, the Kd in series [6] (pH 6.0) was found to be 350 nM; in series [6] (pH 7.4), 98 nM.
